Two substances from paper PMC7655804 can be followed below.

The assay has as its target ferroportin from Philippine tarsier (Carlito syrichta / Tarsius syrichta) (Carlito syrichta (Tarsius syrichta, Philippine tarsier)).

human hepcidin (peptide) returned an initial rate of Co^2+ transport by TsFpn proteoliposomes with hepcidin on both inside and outside of the liposomes of 0.043 min⁻¹.
As for human hepcidin, the initial rate of Co^2+ transport by TsFpn proteoliposomes with both hepcidin and 11F9 Fab on the external side turned out to be 0.032 min⁻¹.
